Common to all, as to experiment: Immunohistochemistry (IHC) with biotinylated BARB4 on malignant tissue
Assay type in all cases: binding, human

The test system of one assay is Malignant Tissues: Lung. The settings on record: positive/negative. The protocol:
(§1) Immunohistochemistry with human IgG on human tissue naturally results in high background staining. Accordingly, BARB4 was labeled with biotin to reduce background.
(§2) BARB4 antibody and an unrelated commercial IgG control (Chrompure IgG, Dianova) where labelled with “EZ-Link Maleimide-PEO Solid Phase Biotinylation Kit” from Pierce (Cat-# 21930) and Immunohistochemistry was initiated on different tumor tissue. Parrafin embedded tissue was first deparaffinized by treatment with Xylene 1 for 5 min, Xylene 2 for 5 min, followed by 100% Ethanol 1 for 5 min, 100% Ethanol 2 for 5 min, 70 ml Methanol+500 μl H2O2 for 7 min, 90% Ethanol 1 for 3 min, 90% Ethanol 2 for 3 min, 80% Ethanol 1 for 3 min, 80% Ethanol 2 for 3 min, 70% Ethanol 1 for 3 min, 70% Ethanol 2 for 3 min, and then washed three times with distilled H2O. (1 and 2 mean that the tissues were treated 2 times with the same alcohol, one after the another, in two different tanks.) Tissue was then heated in Citric acid, pH 5,5 in a water-bath at 99.9° C. for 20 min, placed in Tris/NaCl (Tris, 0.6 g/l and NaCl 8.1 g/l, pH 7.4) for 5 min, block with 0.5% BSA in PBS for 60 min, and then washed three times with Tris/NaCl (Tris, 0.6 g/l and NaCl 8.1 g/l, pH 7.4). Primary antibody (150 μl per microscope slide) was added, or a negative control biotinylated isotype matched control human antibody (Chrompure IgG, Dianova, Germany) or a positive controlanti-cytokeratin antibody, and incubated for 30 min in a humidified chamber at 37° C. Tissue was washed three times with Tris/NaCl (Tris, 0.6 g/l and NaCl 8.1 g/l, pH 7.4). Secondary antibody: (150 […]) was subsequently added and incubated for 30 min in a humidified chamber at room temperature (for biotinylated antibodies: NeurtrAvidin 1:100 in PBS), washed three times with Tris/NaCl (Tris, 0.6 g/l and NaCl 8.1 g/l, pH7.4), placed in PBS for 10 min. Tiusse was subsequently incubated with diaminobenzidine (0.05%)-hydrogen peroxide (0.02%) (150 μl per microscope slide) (Sigma, Taufkirchen, München, Germany) for 10 min, washed three times with H2O, washed once with distilled H2O, incubated with hematoxylin/eosin for 5 min, and placed under running tap water 10-15 min. Tissue was then washed again with distilled H2O, and the slides covered with Aquatex (Merck Bioscience).

In assay [1] the test system is Malignant Tissues: Esophagus. The settings on record: positive/negative. The protocol:
as §1, §2

The test system of assay [2] is Malignant Tissues: Pancreas. The settings on record: positive/negative. The protocol:
as §1, §2

Assay [3] has as its system Malignant Tissues: Prostrate. Conditions: Adeno, positive/negative. The protocol:
as §1, §2

B1: BARB4: human IgG antibody produced by hybridoma DSMZ Deposit No. DSM ACC2876; heavy chain SEQ ID NOs:1, 3, 5, 7, light chain SEQ ID NO:9 (antibody, V domains shown)
VH: QVQLVESGGGVVQPGRSLRLSCAASGFRFTTHGMHWVRQAPGKGLEWVAVISYNGRNKYYADYVNGRFTISRDDSRDTVFLQMNSLRPEDTAMYYCAKVRGDGYGDYGYFDYWGHGTLVSVSS
VL: QSALTQPRSVSGSPGQSVTISCTGTYNYVSWYQQHPGKAPKLMIFDVSRRSSGVPDRFSGSKSGNTASLTISGLQAEDEADYYCCSYGGTYLYVFGTGTTVTVLGQ
On to B1, for which the “Barb 4 +/−” value with Malignant Tissues: Lung (Carcinoid (neuron-endocrine)) is 1/0; in the assay with Malignant Tissues: Lung (Lymph Node Metastasis), 1/0; with Malignant Tissues: Lung (Squamous cell) it was 2/0; in assay [1] (Adeno (Barrett Carcinoma)) it was 1/0; in assay [1] (Squamous cell), 1/0; in assay [2] (Adeno), 0/1. Further, the “Barb 4 +/−” value is recorded as 4/0 in assay [2] (Lymph Node Metastasis) and 1/0 in assay [3].

The values are drawn from US20090291083A1, “BARB4 TARGET, ANTIBODY DESIGNATED BARB4, BARB4 RELATED ANTIBODIES, AND METHODS OF MAKING AND USING SAME” (PATRYS LIMITED, priority 2008, published 2009).
